Target: Rac1-GMPPNP (UniProt P63000)
Assay: equilibrium dialysis

Kd: 1000 to 2000 nM
Substance: ΔWRC (VCA-deleted WRC, containing WAVE1(1-186)) (from UniProt Q7L576;Q9Y2A7;Q92558;Q9NYB9;Q8WUW1) (complex)

— PMC3085272
